The record followed here is patent US20140349405, “RNA-DIRECTED DNA CLEAVAGE AND GENE EDITING BY CAS9 ENZYME FROM NEISSERIA MENINGITIDIS” (WISCONSIN ALUMNI RESEARCH FOUNDATION, published 2014).

For series [1], the target named is T1, RNA polymerase sigma70 holoenzyme (Escherichia coli, UniProt P0A7Z4;P0A8V2;P0A8T7;P0A800;P00579 …). Nature of the series: in vitro transcription, 168 nt product; 10 mM Mg, 100 mM KCl, 37 C. As to conditions: tags: Epicentre, sigma-saturated; chain copies: 2,1,1,1,1.
In series [2] the target is T1, RNA polymerase sigma70 holoenzyme. Briefly: in vitro transcription, no transcript. As to conditions: tags: Epicentre, sigma-saturated; chain copies: 2,1,1,1,1.

T1 sequence (P0A7Z4 whole entry, chain 1 of 4): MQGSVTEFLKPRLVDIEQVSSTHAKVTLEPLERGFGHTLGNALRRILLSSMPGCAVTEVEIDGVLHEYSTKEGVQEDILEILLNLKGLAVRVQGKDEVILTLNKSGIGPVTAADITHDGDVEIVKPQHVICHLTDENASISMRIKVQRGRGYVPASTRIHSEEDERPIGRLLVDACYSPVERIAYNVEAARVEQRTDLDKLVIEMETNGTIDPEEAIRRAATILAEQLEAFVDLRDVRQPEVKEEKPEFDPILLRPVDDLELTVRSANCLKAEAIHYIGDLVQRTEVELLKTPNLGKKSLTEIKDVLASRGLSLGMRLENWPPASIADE
T1 sequence (P0A8V2 whole entry, chain 2 of 4): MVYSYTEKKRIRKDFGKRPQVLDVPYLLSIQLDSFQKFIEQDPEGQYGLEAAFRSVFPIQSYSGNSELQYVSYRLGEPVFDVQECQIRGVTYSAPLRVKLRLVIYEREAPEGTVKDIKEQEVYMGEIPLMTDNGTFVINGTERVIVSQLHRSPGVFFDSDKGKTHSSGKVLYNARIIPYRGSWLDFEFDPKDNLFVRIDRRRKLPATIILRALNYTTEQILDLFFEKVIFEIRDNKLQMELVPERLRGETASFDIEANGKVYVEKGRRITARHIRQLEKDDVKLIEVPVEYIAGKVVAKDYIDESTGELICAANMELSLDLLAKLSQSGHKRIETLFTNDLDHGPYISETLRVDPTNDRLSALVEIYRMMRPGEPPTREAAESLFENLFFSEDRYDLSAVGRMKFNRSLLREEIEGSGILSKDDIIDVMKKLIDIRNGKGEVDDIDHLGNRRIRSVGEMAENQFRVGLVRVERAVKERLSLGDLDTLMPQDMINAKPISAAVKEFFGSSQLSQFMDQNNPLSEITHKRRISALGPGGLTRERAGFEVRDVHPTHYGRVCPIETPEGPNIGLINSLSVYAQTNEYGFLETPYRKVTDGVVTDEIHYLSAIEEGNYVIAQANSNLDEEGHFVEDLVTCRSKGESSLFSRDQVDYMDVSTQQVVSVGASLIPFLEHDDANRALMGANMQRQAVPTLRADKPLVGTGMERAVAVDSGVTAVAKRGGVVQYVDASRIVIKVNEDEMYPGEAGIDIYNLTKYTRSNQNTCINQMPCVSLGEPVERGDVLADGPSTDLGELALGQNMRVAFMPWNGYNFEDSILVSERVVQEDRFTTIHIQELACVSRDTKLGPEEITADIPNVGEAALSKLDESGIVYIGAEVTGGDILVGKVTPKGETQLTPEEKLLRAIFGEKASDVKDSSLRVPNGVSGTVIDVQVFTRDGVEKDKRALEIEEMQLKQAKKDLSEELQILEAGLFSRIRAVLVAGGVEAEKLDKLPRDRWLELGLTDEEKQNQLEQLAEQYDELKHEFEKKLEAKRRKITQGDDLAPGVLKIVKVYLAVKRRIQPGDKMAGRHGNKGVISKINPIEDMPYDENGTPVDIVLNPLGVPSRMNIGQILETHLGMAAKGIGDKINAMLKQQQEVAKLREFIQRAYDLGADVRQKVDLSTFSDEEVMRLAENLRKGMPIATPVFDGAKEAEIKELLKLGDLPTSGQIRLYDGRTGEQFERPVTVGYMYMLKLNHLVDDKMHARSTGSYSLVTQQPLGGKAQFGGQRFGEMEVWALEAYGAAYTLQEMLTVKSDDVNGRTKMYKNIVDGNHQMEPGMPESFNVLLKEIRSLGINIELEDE
T1 sequence (P0A800 2-91, chain 4 of 4): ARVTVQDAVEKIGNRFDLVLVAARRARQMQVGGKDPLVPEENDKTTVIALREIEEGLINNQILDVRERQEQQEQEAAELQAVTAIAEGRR
T1 sequence (P00579 whole entry, chain 5 of 4): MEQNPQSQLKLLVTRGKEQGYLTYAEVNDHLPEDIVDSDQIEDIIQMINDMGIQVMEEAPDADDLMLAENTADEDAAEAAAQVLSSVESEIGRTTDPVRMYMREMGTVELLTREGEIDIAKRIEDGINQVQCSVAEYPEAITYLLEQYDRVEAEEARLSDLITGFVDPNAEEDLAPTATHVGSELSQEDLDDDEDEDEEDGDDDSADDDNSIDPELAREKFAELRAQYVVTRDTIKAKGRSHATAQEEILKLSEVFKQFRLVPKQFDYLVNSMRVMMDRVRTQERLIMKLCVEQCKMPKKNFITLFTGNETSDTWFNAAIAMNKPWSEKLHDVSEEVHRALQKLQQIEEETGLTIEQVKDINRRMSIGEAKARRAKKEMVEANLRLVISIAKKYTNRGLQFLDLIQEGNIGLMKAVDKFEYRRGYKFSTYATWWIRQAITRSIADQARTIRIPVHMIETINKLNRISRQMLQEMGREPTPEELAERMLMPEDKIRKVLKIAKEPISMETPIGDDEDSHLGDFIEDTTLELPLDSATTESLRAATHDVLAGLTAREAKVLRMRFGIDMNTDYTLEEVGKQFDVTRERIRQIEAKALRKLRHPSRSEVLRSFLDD

B1: Neisseria CRISPR repeat promoter wt (dsDNA)
DNA 1: GTTGTAGCTCCCTTTCTCATTTCGCAGTGCTACAAT
DNA 2: ATTGTAGCACTGCGAAATGAGAAAGGGAGCTACAAC
Regarding B1, the binding result in series [1] is given as “binds”.

B2: Neisseria CRISPR repeat promoter mut (dsDNA)
DNA 1: GTTGTAGCTCCCTTTCTCATTTCGCAGTGCCCCAAT
DNA 2: ATTGGGGCACTGCGAAATGAGAAAGGGAGCTACAAC
modifications: [31-32]
For B2, the binding result in series [2] is “no binding”.
